Among the data in the emibetuzumab library of Makowski et al. (2022) are non-specific binding call values, retold here.

Sequences and labels used below:
B1: VH:VL chains; a variant is named by its letters at X, in order (parent)
chain 1: QVQLVQSGAEVKKPGASVKVSCKASGYTFTDYXMHWVRQAPGQGLEWMGXVNPNXXXTTYNQKFEGRVTMTTDTSTSTAYMELRSLRSDDTAVYYCARXNXLDXWGQGTTVTVSS
chain 2: DIQMTQSPSSLSASVGDRVTITCSVSSSVSSIYLHWYQQKPGKAPKLLIYSTSNLASGVPSRFSGSGSGTDFTLTISSLQPEDFATYYCQVYSGYPLTFGGGTKVEIK

Variants of B1 are the subject of this series. As to the kind of experiment: yeast display scFab, FACS + sequencing. The procedure, abridged: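 For the non-specific binding call, a heavy-chain CDR mutant scFab library on the yeast surface was FACS-sorted and samples from two replicates were deep sequenced. Cells were labelled with anti-Myc and either biotinylated ovalbumin (260 μg/mL in PBSB, 3 h, room temperature) or soluble membrane proteins (130 μg/mL, 20 min on ice), with gates on the top 25% and bottom 10% of binders. With membrane protein and ovalbumin samples pooled, a sequence in ≥3 of 4 positive samples and no negatives was scored positive, and the converse rule scored negatives.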
YKKGSSLF: the non-specific binding call is “binds”. To FGTKGAWD belongs “binds”. To YRRGGAGV belongs “binds”. To FEARDYWD belongs “binds”.

Turning to FRGRDYGD, the non-specific binding call is given as “binds”.

Turning to VGKGDDAA, the non-specific binding call was “no binding”.

Regarding DAARGDGV, the non-specific binding call is on record as “no binding”.

As for DTGGGAWD, the non-specific binding call is listed as “no binding”. For the variant YREKGSLD, the non-specific binding call was “binds”. Next, VREGSSAA: “binds”; VKAGDDVA: “no binding”; YKRGSAAA: “binds”. To SRGRGYGD belongs “binds”; to YTRGADVA, “no binding”. Next, VRGTGSGA: “binds”; SKEAGYSV: “binds”. Turning to AATGSAWA, the non-specific binding call is “no binding”.

Take YTGGNDAD: the non-specific binding call is reported as “no binding”. To DRAGGAGD belongs “no binding”; to FRGGGFVV, “binds”. To VRAGDDSD belongs “no binding”; to DTREGDAV, “no binding”; to ARERGDGY, “no binding”. To AAGRGFLD belongs “no binding”; to VKRRDSGD, “binds”; to VRGKGSSD, “no binding”. With FRRRDAAF, the non-specific binding call is reported as “binds”. Next, YTKRSSGA: “binds”. To DEGGTSGV belongs “no binding”; to VRAGADSV, “no binding”; to DGGENDVF, “no binding”. Next, VAATADSS: “no binding”; VAGRGSAA: “binds”; SKAKGAWD: “binds”. With YRRKGAGD, the non-specific binding call is “binds”.

On to VTKETFSF, for which the non-specific binding call is “no binding”. Next, FTGGAAGD: “no binding”.

Take YRGKGAWS: the non-specific binding call was “binds”. YAAGSSWD: the non-specific binding call is given as “binds”. Regarding DAGRGDGY, the non-specific binding call is on record as “no binding”.

Regarding DREEGAVA, the non-specific binding call is reported as “no binding”. To YKGRGYAD belongs “binds”; to FRRGGAWD, “binds”. To DTREGDVD belongs “no binding”; to FEEGTDWY, “no binding”. Next, DATGGSLD: “no binding”; YKGGGALD: “binds”; SKERGDGA: “no binding”. With YTRGNAWA, the non-specific binding call is given as “binds”.

VRGKGAAD: the non-specific binding call is listed as “binds”. To VRAEGSSV belongs “no binding”. To YAGRGDGA belongs “no binding”; to FRRGSSAV, “binds”; to SAGEGDVY, “no binding”.

As for VAEKGDGA, the non-specific binding call is “no binding”. To SEARSDWA belongs “no binding”. Take YEKGGDGV: the non-specific binding call is listed as “no binding”. On to VTGEDAGA, for which the non-specific binding call is recorded as “no binding”. On to VKTGGAGA, for which the non-specific binding call is recorded as “no binding”.

Turning to YTRGAALA, the non-specific binding call is “no binding”.

For DEGTGAVA, the non-specific binding call is given as “no binding”.

As to DTGGGAGA, the non-specific binding call is listed as “no binding”.

On to SEGRGDAA, for which the non-specific binding call was “no binding”. With FAGGGAGA, the non-specific binding call is reported as “no binding”.

Turning to FRRRGDWY, the non-specific binding call was “binds”. Next, YRGKSALA: “binds”; YKEEDDAV: “no binding”.

With ATKAASWV, the non-specific binding call is on record as “no binding”. Next, DTTRDDSD: “no binding”. With FRGGGSLD, the non-specific binding call was “binds”. Consider SKKTGDLY, for which the non-specific binding call is “no binding”.

Take SKTKSDVA: the non-specific binding call was “no binding”.

On to VRGGDAVY chain 1 G44D, for which the non-specific binding call was “no binding”. Next, VRRRGAGV: “binds”; YRERGAAF: “binds”; SAGEGDWV: “no binding”. To VRGRAAGD belongs “no binding”. Take YARETDGA: the non-specific binding call was “no binding”. Next, VTGGDDSA: “no binding”; SRGRGAVD: “binds”. Next, YKGAGAWA: “binds”. Next, SKAGSDVA: “no binding”; YKGGSDVY: “binds”; VRGEGSWD: “binds”. As to DGGKNAVV, the non-specific binding call was “no binding”. To SAREGALD belongs “no binding”; to SATKTVVV, “binds”; to AARADSGD, “no binding”. For DGARGALF, the non-specific binding call was “binds”. With YRARGDLD, the non-specific binding call was “binds”. Next, AGKGGFAY: “binds”; DKEGGDAV: “no binding”; YAEKDAGD: “no binding”. To FRAKGSAD belongs “binds”.

In the case of FGAKTASF, the non-specific binding call is “no binding”. Next, FRTGDAGA: “no binding”; VKGAGAAS: “binds”. To YAAGASVD belongs “no binding”. Next, VEGGGDGV: “no binding”; VEGGGDGA: “no binding”; FKGKGAAF: “binds”. For YKARTSSS, the non-specific binding call was “binds”. To YRKGSSVD belongs “binds”; to FRGGGDWD, “no binding”. To YRGGTFGF belongs “binds”. To YKGRGVVV belongs “binds”; to DTEEGDVA, “no binding”. In the case of VARETDVA, the non-specific binding call is recorded as “no binding”. To VRRRGALA belongs “binds”; to YKTRSSAD, “binds”; to YKTGDSVD, “no binding”. Next, YRRRGAGV: “binds”; VKEKGDVA: “no binding”; YKRGSAWD: “binds”.

Regarding VEKGGDWD, the non-specific binding call was “no binding”. For the variant FRGRDFLD, the non-specific binding call is listed as “binds”.

Regarding VRGGGVGV, the non-specific binding call is given as “binds”. Next, DAKEGSLD: “no binding”. For FREGASWD, the non-specific binding call is “binds”.

For SKRETAWS, the non-specific binding call is reported as “binds”. Consider VRAGAAGV, for which the non-specific binding call is listed as “binds”. Next, YTTGGYLV: “binds”; VEAGDAAA: “no binding”; ARRRGSGA: “binds”.

Consider DKEGGAAD, for which the non-specific binding call is “no binding”. To FRGRGDGD belongs “binds”; to YRAAGSWS, “binds”; to FAEGDDSA, “no binding”.

Take YKAGDAGD: the non-specific binding call is “no binding”. Next, VRGRGFLD: “binds”. Next, SKEGGVGV: “binds”; YEGGGSAV: “no binding”. Next, VGARNSGV: “no binding”. Consider YRAGGSSY, for which the non-specific binding call is “binds”. To DKGGSDVA belongs “no binding”. To FRGRDAVD belongs “binds”; to FRTKSDLA, “no binding”.

With YRRKGAAY, the non-specific binding call is reported as “binds”. Next, ATGANSLD: “no binding”. As to YRRGGFGV, the non-specific binding call is listed as “binds”.

For the variant YKGRASAV, the non-specific binding call is “binds”. With DRGGDSSS, the non-specific binding call is listed as “no binding”. To VGGGNAGD belongs “no binding”; to YRTRGSGF, “binds”; to YRTRGSGY, “binds”. To FRRGGSAF belongs “binds”; to FGKGGFGY, “binds”. To FEAESYGV belongs “binds”; to YEKETAGV, “binds”. Take YRGKGAGF: the non-specific binding call is on record as “binds”.

YRTGTAGF: the non-specific binding call was “binds”. Next, VRTEDASF: “no binding”. Next, DRGGDDVY: “no binding”; DGGTNDVD: “no binding”; DATGGDAD: “no binding”. Next, YRKKTDWS: “binds”.

As to DKGRGSSA, the non-specific binding call is “no binding”.

Turning to YRAGGVGF, the non-specific binding call was “binds”.

In the case of VEGGNDGA, the non-specific binding call is “no binding”.

Turning to SKERGDWY, the non-specific binding call is on record as “no binding”.

In the case of SGKGGSAY, the non-specific binding call is recorded as “binds”. To YKGRGASA belongs “binds”; to VRRRGSWV, “binds”; to DRGGDDWY, “no binding”. For the variant YKEKGAVD, the non-specific binding call is recorded as “binds”. To YKAKGAGD belongs “binds”; to YRGKGSGF, “binds”. To FRGRGSWV belongs “binds”; to SKGRGAWV, “binds”. To YRARGAGV belongs “binds”. In the case of YKTRGAGD chain 1 Q43R, the non-specific binding call is reported as “no binding”.

Consider YETEGDVF, for which the non-specific binding call is on record as “no binding”.

DEGKGFGS: the non-specific binding call is given as “binds”. Next, YRRRGALY: “binds”. Consider DTKAASGV, for which the non-specific binding call is reported as “no binding”. To DKTGDDGS belongs “no binding”. To VEGTGDWD belongs “no binding”; to FRERGSWV, “binds”. To YRRGSVGV belongs “binds”. With VAETAAAA, the non-specific binding call is reported as “no binding”. To YRRRGVVV belongs “binds”.

Turning to VAGTSDGA, the non-specific binding call is reported as “no binding”. Next, YKGRGSWS: “binds”. Next, YRERGAVV: “binds”. To DTGGDDGF belongs “no binding”; to FRGRGSAY, “binds”. Consider DKAGGAGV, for which the non-specific binding call is given as “no binding”. To VKGEGYGA belongs “binds”; to VRERGASD, “binds”. For the variant STGGDDGA, the non-specific binding call is on record as “no binding”. Next, YRGAGSGS: “binds”; YKGRGYGF: “binds”; FARGGYVA: “binds”. In the case of DARRGAGV, the non-specific binding call is recorded as “no binding”. Next, SKERGDVV: “no binding”; YRARSASV: “binds”. Next, YRRGSASV: “binds”; YKAGGFWF: “binds”. Next, YKRGGAAA: “binds”; VTEGGDVA: “no binding”; AGTRSFGY: “binds”.

For the variant SGRGNSGV, the non-specific binding call was “no binding”. Turning to VKATAVAV, the non-specific binding call is “binds”. To YRARSAGA belongs “binds”. As to YRARSAGY, the non-specific binding call is “binds”.

As for FKAEAFSF, the non-specific binding call is listed as “binds”.

For the variant YRRRGSSS, the non-specific binding call is “binds”. To YKGKGFGA belongs “binds”. To VTGEDDWD belongs “no binding”.

In the case of VAERSFGV, the non-specific binding call is listed as “binds”. To YAGRGDSA belongs “no binding”; to VRAGGDSF, “no binding”. As to SKAGGSAD, the non-specific binding call was “binds”. Next, YRRRGAVA: “binds”; YRGKDAWY: “binds”. To VRARGDGY belongs “no binding”; to SKGKGVGA, “binds”; to YRKGSAWD, “binds”. Next, DGGADVGA: “binds”. Consider VRTGDSLD, for which the non-specific binding call was “no binding”.

For the variant VEEEGSVV, the non-specific binding call is recorded as “no binding”. Next, VKTGGAVV: “no binding”. To FRRGGALD belongs “binds”; to SKERGSLV, “no binding”; to DTKAADWV, “no binding”. DATRGAGD: the non-specific binding call was “no binding”. To VAGGDAGV belongs “no binding”; to DGGTSYSV, “no binding”.

Take DEGRGDGV: the non-specific binding call is “no binding”. To VAGTGDWV belongs “no binding”. Next, VTTKSAAA: “no binding”; DRRKAFSA: “binds”; YRGKSSAD: “binds”.

For the variant YRGRSASY, the non-specific binding call was “binds”.

As for VAGRSFGS, the non-specific binding call is listed as “binds”. To DRGRGDWV belongs “no binding”.
